Source: patent US20160368995A1 (University of California, published 2016)

Assays:
Assay in all cases: binding and/or signaling studies
CCX-CKR = biological target: T1, CCX-CKR (UniProt Q9NPB9 1-350, limits assumed)
T1 construct: whole, on cells
T1 sequence (looked up): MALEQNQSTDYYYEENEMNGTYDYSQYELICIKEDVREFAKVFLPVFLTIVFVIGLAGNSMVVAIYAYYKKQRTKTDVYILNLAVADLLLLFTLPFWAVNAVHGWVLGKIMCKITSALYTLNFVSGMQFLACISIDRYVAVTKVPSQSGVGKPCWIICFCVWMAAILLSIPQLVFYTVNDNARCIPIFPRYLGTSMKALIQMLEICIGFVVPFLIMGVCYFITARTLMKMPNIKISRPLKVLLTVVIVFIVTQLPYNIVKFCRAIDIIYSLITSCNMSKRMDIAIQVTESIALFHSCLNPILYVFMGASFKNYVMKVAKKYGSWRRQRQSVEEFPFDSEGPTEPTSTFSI
Method: (§1) Radioligand displacement studies of various chemotaxis receptors were carried out. For the radioligand binding assay, membranes from HEK293T cells transiently expressing the respective chemokine receptors were incubated with ˜[…] ¹²⁵I-chemokine and increasing concentrations of chemokine (control) or CXCL17. Cells were incubated for 3 h at 4° C. and washed twice with binding buffer containing 0.5 M NaCl. After harvesting the samples with lysis buffer, the remaining cell-bound radioactivity was counted.

CCR2 = biological target: T2, CCR2 (human, UniProt P41597-2 1-360)
T2 sequence: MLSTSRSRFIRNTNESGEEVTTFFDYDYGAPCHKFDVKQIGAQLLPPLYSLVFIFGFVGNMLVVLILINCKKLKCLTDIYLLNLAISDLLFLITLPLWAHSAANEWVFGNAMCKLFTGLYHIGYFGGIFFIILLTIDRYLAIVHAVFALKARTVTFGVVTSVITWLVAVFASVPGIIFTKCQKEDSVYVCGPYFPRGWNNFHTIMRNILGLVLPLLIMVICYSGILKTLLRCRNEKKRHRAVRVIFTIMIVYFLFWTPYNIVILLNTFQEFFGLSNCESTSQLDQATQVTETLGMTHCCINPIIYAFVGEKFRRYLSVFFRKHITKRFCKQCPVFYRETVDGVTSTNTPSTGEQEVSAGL
Method: as §1

CXCR3 = biological target: T3, CXCR3 (UniProt P49682 1-368, limits assumed)
T3 construct: whole, on cells
T3 sequence (looked up): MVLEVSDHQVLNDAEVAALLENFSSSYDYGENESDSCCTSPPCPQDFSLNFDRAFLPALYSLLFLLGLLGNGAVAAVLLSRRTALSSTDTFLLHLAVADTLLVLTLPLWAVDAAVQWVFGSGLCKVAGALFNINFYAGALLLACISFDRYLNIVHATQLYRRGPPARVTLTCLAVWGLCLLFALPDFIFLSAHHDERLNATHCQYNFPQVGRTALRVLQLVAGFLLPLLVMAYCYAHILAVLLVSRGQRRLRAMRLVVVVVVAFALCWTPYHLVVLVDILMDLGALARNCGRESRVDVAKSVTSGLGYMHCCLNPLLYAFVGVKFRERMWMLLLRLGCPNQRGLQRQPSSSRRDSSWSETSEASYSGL
Method: as §1

CXCR4 = biological target: T4, CXCR4 (human, UniProt P61073-2 1-356)
T4 construct: The construct used is not described
T4 sequence (P61073 other isoform, or with tags, fused parts or gaps): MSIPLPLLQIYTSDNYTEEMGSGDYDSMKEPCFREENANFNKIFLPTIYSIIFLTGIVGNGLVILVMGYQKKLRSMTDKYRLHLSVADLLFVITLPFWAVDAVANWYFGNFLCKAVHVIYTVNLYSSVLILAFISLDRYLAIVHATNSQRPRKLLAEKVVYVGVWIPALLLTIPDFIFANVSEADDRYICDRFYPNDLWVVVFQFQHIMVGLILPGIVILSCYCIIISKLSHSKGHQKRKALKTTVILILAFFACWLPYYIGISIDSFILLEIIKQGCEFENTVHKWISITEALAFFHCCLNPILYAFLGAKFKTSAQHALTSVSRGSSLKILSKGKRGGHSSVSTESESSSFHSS
Method: as §1

CXCR7 = biological target: T5, CXCR7 (human, UniProt P25106 1-362)
T5 construct: Tested on CXCR7 expressing cells
T5 sequence (P25106 whole entry): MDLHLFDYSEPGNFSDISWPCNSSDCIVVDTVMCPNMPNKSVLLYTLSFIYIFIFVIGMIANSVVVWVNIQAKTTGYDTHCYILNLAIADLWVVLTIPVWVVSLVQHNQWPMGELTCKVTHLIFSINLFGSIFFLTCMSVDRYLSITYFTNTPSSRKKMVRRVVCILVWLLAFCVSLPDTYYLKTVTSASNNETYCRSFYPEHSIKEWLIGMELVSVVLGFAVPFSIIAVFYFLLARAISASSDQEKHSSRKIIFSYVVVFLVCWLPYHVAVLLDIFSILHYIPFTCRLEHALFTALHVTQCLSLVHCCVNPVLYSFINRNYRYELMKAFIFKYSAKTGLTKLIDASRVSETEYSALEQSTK
Method: as §1

Measured: binding result

B1: recombinant human CXCL17 (chemokine (C-X-C motif) ligand 17) (ligand)
chain: SSLNPGVARGHRDRGQASRRWLQEGGQECECKDWFLRAPRRKFMTVSGLPKKQCPCDHFKGNVKKTRHQRHHRKPNKHSRACQQFLKQCQLRSFALPL
notes: Bought recombinant protein (R&D Systems); also called human recombinant CXCL17
no binding: all assays above
